Assay results as given in patent US11130793B2, “GLP-1/GLP-2 dual agonists” (Zealand Pharma A/S, priority 2016, dated 2021).
Each block holds one binder with its values, some of them ahead of it. Square brackets hold non-standard residues; d marks the D form. Aib = CC(C)(N)C(=O)O

Key:
[1] = target: human glucagon-like peptide 1 receptor (GLP-1R) (human, UniProt P43220); test: cell-based or functional assay
[2] = target: T1, human GLP-2 receptor (hGLP2-R) (human, UniProt O95838); test: cell-based or functional assay
T1 sequence: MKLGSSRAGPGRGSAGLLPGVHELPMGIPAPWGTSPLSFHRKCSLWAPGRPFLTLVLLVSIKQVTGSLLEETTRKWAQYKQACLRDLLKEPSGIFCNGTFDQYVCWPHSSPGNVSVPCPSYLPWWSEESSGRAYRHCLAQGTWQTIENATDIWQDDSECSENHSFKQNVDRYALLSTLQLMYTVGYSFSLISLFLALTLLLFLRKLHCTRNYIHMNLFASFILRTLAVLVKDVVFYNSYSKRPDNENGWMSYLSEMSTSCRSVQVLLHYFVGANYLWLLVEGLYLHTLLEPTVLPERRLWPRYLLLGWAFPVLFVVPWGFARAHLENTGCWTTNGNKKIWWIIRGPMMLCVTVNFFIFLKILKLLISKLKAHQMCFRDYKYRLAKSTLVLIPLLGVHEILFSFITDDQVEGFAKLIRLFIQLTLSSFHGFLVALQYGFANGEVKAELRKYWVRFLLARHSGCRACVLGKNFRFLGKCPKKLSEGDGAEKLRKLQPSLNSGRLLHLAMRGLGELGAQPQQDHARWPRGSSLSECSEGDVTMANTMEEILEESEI

B1: Compound 37 (peptide)
peptide: H-H[Aib]EGTFTSELATILDEQAARDFINWLKEQKITD-OH
SMILES: CC[C@H](C)[C@H](NC(=O)[C@H](Cc1ccccc1)NC(=O)[C@H](CC(=O)O)NC(=O)[C@H](CCCNC(=N)N)NC(=O)[C@H](C)NC(=O)[C@H](C)NC(=O)[C@H](CCC(N)=O)NC(=O)[C@H](CCC(=O)O)NC(=O)[C@H](CC(=O)O)NC(=O)[C@H](CC(C)C)NC(=O)[C@@H](NC(=O)[C@@H](NC(=O)[C@H](C)NC(=O)[C@H](CC(C)C)NC(=O)[C@H](CCC(=O)O)NC(=O)[C@H](CO)NC(=O)[C@@H](NC(=O)[C@H](Cc1ccccc1)NC(=O)[C@@H](NC(=O)CNC(=O)[C@H](CCC(=O)O)NC(=O)C(C)(C)NC(=O)[C@@H](N)Cc1c[nH]cn1)[C@@H](C)O)[C@@H](C)O)[C@@H](C)O)[C@@H](C)CC)C(=O)N[C@@H](CC(N)=O)C(=O)N[C@@H](Cc1c[nH]c2ccccc12)C(=O)N[C@@H](CC(C)C)C(=O)N[C@@H](CCCCN)C(=O)N[C@@H](CCC(=O)O)C(=O)N[C@@H](CCC(N)=O)C(=O)N[C@@H](CCCCN)C(=O)N[C@H](C(=O)N[C@H](C(=O)N[C@@H](CC(=O)O)C(=O)O)[C@@H](C)O)[C@@H](C)CC
EC50 GLP-1 (nM); cAMP AlphaScreen [1]: 0.007 nM
EC50 GLP-2 (nM); cAMP AlphaScreen [2]: 0.16 nM

B2: Compound 35 (peptide)
peptide: H-H[Aib]EGTFTSELATILDEQAARDFINWLKAHKITD-OH
SMILES: CC[C@H](C)[C@H](NC(=O)[C@H](Cc1ccccc1)NC(=O)[C@H](CC(=O)O)NC(=O)[C@H](CCCNC(=N)N)NC(=O)[C@H](C)NC(=O)[C@H](C)NC(=O)[C@H](CCC(N)=O)NC(=O)[C@H](CCC(=O)O)NC(=O)[C@H](CC(=O)O)NC(=O)[C@H](CC(C)C)NC(=O)[C@@H](NC(=O)[C@@H](NC(=O)[C@H](C)NC(=O)[C@H](CC(C)C)NC(=O)[C@H](CCC(=O)O)NC(=O)[C@H](CO)NC(=O)[C@@H](NC(=O)[C@H](Cc1ccccc1)NC(=O)[C@@H](NC(=O)CNC(=O)[C@H](CCC(=O)O)NC(=O)C(C)(C)NC(=O)[C@@H](N)Cc1c[nH]cn1)[C@@H](C)O)[C@@H](C)O)[C@@H](C)O)[C@@H](C)CC)C(=O)N[C@@H](CC(N)=O)C(=O)N[C@@H](Cc1c[nH]c2ccccc12)C(=O)N[C@@H](CC(C)C)C(=O)N[C@@H](CCCCN)C(=O)N[C@@H](C)C(=O)N[C@@H](Cc1c[nH]cn1)C(=O)N[C@@H](CCCCN)C(=O)N[C@H](C(=O)N[C@H](C(=O)N[C@@H](CC(=O)O)C(=O)O)[C@@H](C)O)[C@@H](C)CC
EC50 GLP-1 (nM); cAMP AlphaScreen [1]: 0.006 nM
EC50 GLP-2 (nM); cAMP AlphaScreen [2]: 0.048 nM

B3: Compound 34 (peptide)
peptide: H-H[Aib]EGTFTSELATILDEQAARDFISWLIAHKITD-OH
SMILES: CC[C@H](C)[C@H](NC(=O)[C@H](CC(C)C)NC(=O)[C@H](Cc1c[nH]c2ccccc12)NC(=O)[C@H](CO)NC(=O)[C@@H](NC(=O)[C@H](Cc1ccccc1)NC(=O)[C@H](CC(=O)O)NC(=O)[C@H](CCCNC(=N)N)NC(=O)[C@H](C)NC(=O)[C@H](C)NC(=O)[C@H](CCC(N)=O)NC(=O)[C@H](CCC(=O)O)NC(=O)[C@H](CC(=O)O)NC(=O)[C@H](CC(C)C)NC(=O)[C@@H](NC(=O)[C@@H](NC(=O)[C@H](C)NC(=O)[C@H](CC(C)C)NC(=O)[C@H](CCC(=O)O)NC(=O)[C@H](CO)NC(=O)[C@@H](NC(=O)[C@H](Cc1ccccc1)NC(=O)[C@@H](NC(=O)CNC(=O)[C@H](CCC(=O)O)NC(=O)C(C)(C)NC(=O)[C@@H](N)Cc1c[nH]cn1)[C@@H](C)O)[C@@H](C)O)[C@@H](C)O)[C@@H](C)CC)[C@@H](C)CC)C(=O)N[C@@H](C)C(=O)N[C@@H](Cc1c[nH]cn1)C(=O)N[C@@H](CCCCN)C(=O)N[C@H](C(=O)N[C@H](C(=O)N[C@@H](CC(=O)O)C(=O)O)[C@@H](C)O)[C@@H](C)CC
EC50 GLP-1 (nM); cAMP AlphaScreen [1]: 0.005 nM
EC50 GLP-2 (nM); cAMP AlphaScreen [2]: 0.049 nM

B6: Compound 36 (peptide)
peptide: H-H[Aib]EGTFTSELATILDEQAARDFINWLKSYKITD-OH
SMILES: CC[C@H](C)[C@H](NC(=O)[C@H](Cc1ccccc1)NC(=O)[C@H](CC(=O)O)NC(=O)[C@H](CCCNC(=N)N)NC(=O)[C@H](C)NC(=O)[C@H](C)NC(=O)[C@H](CCC(N)=O)NC(=O)[C@H](CCC(=O)O)NC(=O)[C@H](CC(=O)O)NC(=O)[C@H](CC(C)C)NC(=O)[C@@H](NC(=O)[C@@H](NC(=O)[C@H](C)NC(=O)[C@H](CC(C)C)NC(=O)[C@H](CCC(=O)O)NC(=O)[C@H](CO)NC(=O)[C@@H](NC(=O)[C@H](Cc1ccccc1)NC(=O)[C@@H](NC(=O)CNC(=O)[C@H](CCC(=O)O)NC(=O)C(C)(C)NC(=O)[C@@H](N)Cc1c[nH]cn1)[C@@H](C)O)[C@@H](C)O)[C@@H](C)O)[C@@H](C)CC)C(=O)N[C@@H](CC(N)=O)C(=O)N[C@@H](Cc1c[nH]c2ccccc12)C(=O)N[C@@H](CC(C)C)C(=O)N[C@@H](CCCCN)C(=O)N[C@@H](CO)C(=O)N[C@@H](Cc1ccc(O)cc1)C(=O)N[C@@H](CCCCN)C(=O)N[C@H](C(=O)N[C@H](C(=O)N[C@@H](CC(=O)O)C(=O)O)[C@@H](C)O)[C@@H](C)CC
EC50 GLP-1 (nM); cAMP AlphaScreen [1]: 0.007 nM
EC50 GLP-2 (nM); cAMP AlphaScreen [2]: 0.11 nM

Continued, values first:

EC50 GLP-1 (nM); cAMP AlphaScreen [1]: 1.4 nM
EC50 GLP-2 (nM); cAMP AlphaScreen [2]: 0.05 nM
Binder: H-HGEGSFSSELATILDEQAARDFIAWLIQHKITD-NH2 [Compound 40]

EC50 GLP-1 (nM); cAMP AlphaScreen [1]: 0.008 nM
EC50 GLP-2 (nM); cAMP AlphaScreen [2]: 0.043 nM
Binder: H-HGEGTFTSELATILDEQAARDFIAWLIAHKITD-OH [Compound 38]

EC50 GLP-1 (nM); cAMP AlphaScreen [1]: 0.03 nM
EC50 GLP-2 (nM); cAMP AlphaScreen [2]: 0.96 nM
B4: Compound 39 (peptide)
peptide: H-H[Aib]EGTFSSELSTILEEQASREFIAWLIAHKITE-OH
SMILES: CC[C@H](C)[C@H](NC(=O)[C@H](CC(C)C)NC(=O)[C@H](Cc1c[nH]c2ccccc12)NC(=O)[C@H](C)NC(=O)[C@@H](NC(=O)[C@H](Cc1ccccc1)NC(=O)[C@H](CCC(=O)O)NC(=O)[C@H](CCCNC(=N)N)NC(=O)[C@H](CO)NC(=O)[C@H](C)NC(=O)[C@H](CCC(N)=O)NC(=O)[C@H](CCC(=O)O)NC(=O)[C@H](CCC(=O)O)NC(=O)[C@H](CC(C)C)NC(=O)[C@@H](NC(=O)[C@@H](NC(=O)[C@H](CO)NC(=O)[C@H](CC(C)C)NC(=O)[C@H](CCC(=O)O)NC(=O)[C@H](CO)NC(=O)[C@H](CO)NC(=O)[C@H](Cc1ccccc1)NC(=O)[C@@H](NC(=O)CNC(=O)[C@H](CCC(=O)O)NC(=O)C(C)(C)NC(=O)[C@@H](N)Cc1c[nH]cn1)[C@@H](C)O)[C@@H](C)O)[C@@H](C)CC)[C@@H](C)CC)C(=O)N[C@@H](C)C(=O)N[C@@H](Cc1c[nH]cn1)C(=O)N[C@@H](CCCCN)C(=O)N[C@H](C(=O)N[C@H](C(=O)N[C@@H](CCC(=O)O)C(=O)O)[C@@H](C)O)[C@@H](C)CC

EC50 GLP-1 (nM); cAMP AlphaScreen [1]: 0.078 nM
EC50 GLP-2 (nM); cAMP AlphaScreen [2]: 0.026 nM
B5: Compound 41 (peptide)
peptide: H-H[Aib]EGSFSSELATILDEQAARDFIAWLIQHKITD-OH
SMILES: CC[C@H](C)[C@H](NC(=O)[C@H](Cc1ccccc1)NC(=O)[C@H](CC(=O)O)NC(=O)[C@H](CCCNC(=N)N)NC(=O)[C@H](C)NC(=O)[C@H](C)NC(=O)[C@H](CCC(N)=O)NC(=O)[C@H](CCC(=O)O)NC(=O)[C@H](CC(=O)O)NC(=O)[C@H](CC(C)C)NC(=O)[C@@H](NC(=O)[C@@H](NC(=O)[C@H](C)NC(=O)[C@H](CC(C)C)NC(=O)[C@H](CCC(=O)O)NC(=O)[C@H](CO)NC(=O)[C@H](CO)NC(=O)[C@H](Cc1ccccc1)NC(=O)[C@H](CO)NC(=O)CNC(=O)[C@H](CCC(=O)O)NC(=O)C(C)(C)NC(=O)[C@@H](N)Cc1c[nH]cn1)[C@@H](C)O)[C@@H](C)CC)C(=O)N[C@@H](C)C(=O)N[C@@H](Cc1c[nH]c2ccccc12)C(=O)N[C@@H](CC(C)C)C(=O)N[C@H](C(=O)N[C@@H](CCC(N)=O)C(=O)N[C@@H](Cc1c[nH]cn1)C(=O)N[C@@H](CCCCN)C(=O)N[C@H](C(=O)N[C@H](C(=O)N[C@@H](CC(=O)O)C(=O)O)[C@@H](C)O)[C@@H](C)CC)[C@@H](C)CC
